The values that follow come from article PMC10688784, “In vitro characterization of the phage lysis protein MS2-L” (Microbiome Research Reports, 2023).

Like-named read-outs stand apart in the source and are kept apart here.

For test [1], the target named is MS2-Lp26, MS2-L truncated of the first 25 amino acids, C-terminal StrepII-tag (MS2 phage). Put plainly: native MS; LILBID-MS; derivatives CF expressed in standard A19 S30 lysate with 0.4% Brij78, purified; 50 mM ammonium acetate pH 7.4 with 0.02% Brij78; laser 10-20 mJ.
The target is the same in test [2]. Put plainly: native MS; LILBID-MS; derivatives CF expressed in standard A19 S30 lysate with 60 µM DMPG nanodiscs, purified; 50 mM ammonium acetate pH 7.4; laser 10-20 mJ.
The target in test [3] is MS2-Lp29, MS2-L truncated of the first 28 amino acids, C-terminal StrepII-tag (MS2 phage). In words: native MS; LILBID-MS; derivatives CF expressed in standard A19 S30 lysate with 0.4% Brij78, purified; 50 mM ammonium acetate pH 7.4 with 0.02% Brij78; laser 10-20 mJ.
The target is the same in test [4]. Put plainly: native MS; LILBID-MS; derivatives CF expressed in standard A19 S30 lysate with 60 µM DMPG nanodiscs, purified; 50 mM ammonium acetate pH 7.4; laser 10-20 mJ.
Test [5] addresses MS2-Lp35, MS2-L truncated of the first 34 amino acids, C-terminal StrepII-tag (MS2 phage). Put plainly: native MS; LILBID-MS; derivatives CF expressed in standard A19 S30 lysate with 0.4% Brij78, purified; 50 mM ammonium acetate pH 7.4 with 0.02% Brij78; laser 10-20 mJ.
The target is the same in test [6]. In words: native MS; LILBID-MS; derivatives CF expressed in standard A19 S30 lysate with 60 µM DMPG nanodiscs, purified; 50 mM ammonium acetate pH 7.4; laser 10-20 mJ.
The target of test [7] is MS2-Lp23, MS2-L truncated of the first 22 amino acids, C-terminal StrepII-tag (MS2 phage). Put plainly: native MS; LILBID-MS; derivatives CF expressed in standard A19 S30 lysate with 0.4% Brij78, purified; 50 mM ammonium acetate pH 7.4 with 0.02% Brij78; laser 10-20 mJ.
Test [8] has the same target. In words: native MS; LILBID-MS; derivatives CF expressed in standard A19 S30 lysate with 60 µM DMPG nanodiscs, purified; 50 mM ammonium acetate pH 7.4; laser 10-20 mJ.
The target of test [9] is MS2-Lp32, MS2-L truncated of the first 31 amino acids, C-terminal StrepII-tag (MS2 phage). In words: native MS; LILBID-MS; derivatives CF expressed in standard A19 S30 lysate with 0.4% Brij78, purified; 50 mM ammonium acetate pH 7.4 with 0.02% Brij78; laser 10-20 mJ.
The target is the same in test [10]. In words: native MS; LILBID-MS; derivatives CF expressed in standard A19 S30 lysate with 60 µM DMPG nanodiscs, purified; 50 mM ammonium acetate pH 7.4; laser 10-20 mJ.
Test [11] deals with T1, chaperone DnaJ with C-terminal His6-tag (UniProt P08622 1-376).
T1 construct: Chaperone DnaJ; the dnaJ gene cloned into NdeI/XhoI of pET21a; source: E. coli T7 Express, purified (Ni-NTA); not shown: His6, C-terminal, kept
T1 sequence (looked up): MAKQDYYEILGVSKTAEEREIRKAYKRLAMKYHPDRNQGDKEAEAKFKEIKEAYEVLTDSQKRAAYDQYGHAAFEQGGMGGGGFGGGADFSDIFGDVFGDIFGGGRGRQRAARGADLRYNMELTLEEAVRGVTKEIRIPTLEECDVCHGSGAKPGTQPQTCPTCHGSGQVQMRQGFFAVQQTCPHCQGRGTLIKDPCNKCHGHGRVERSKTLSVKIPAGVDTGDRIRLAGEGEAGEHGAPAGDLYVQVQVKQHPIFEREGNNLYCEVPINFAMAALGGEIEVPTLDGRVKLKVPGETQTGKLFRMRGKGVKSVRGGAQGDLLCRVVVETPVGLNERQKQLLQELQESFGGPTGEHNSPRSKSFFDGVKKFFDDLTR
Put plainly: pull-down. Conditions: one partner purified.

In test [12] the target is MS2-L, full-length phage lysis protein with C-terminal StrepII-tag (MS2 phage) (UniProt P03609). In words: native MS; LILBID-MS; derivatives CF expressed in standard A19 S30 lysate with 60 µM DMPG nanodiscs, purified; 50 mM ammonium acetate pH 7.4; laser 10-20 mJ.
Test [13] has the same target. Described as above. The source holds these as a separate data set.

What is called stoichiometry N is a count of units in the complex or per binding partner. For the molecule “MS2-Lp26, MS2-L truncated of the first 25 amino acids, C-terminal StrepII-tag (domain or fragment)”, the stoichiometry N in test [1] is under 4 monomers; in test [2], over 10 monomers.
For the molecule “MS2-Lp29, MS2-L truncated of the first 28 amino acids, C-terminal StrepII-tag (domain or fragment)”, the stoichiometry N was under 4 monomers in test [3] and over 10 monomers in [4].
In the case of “MS2-Lp35, MS2-L truncated of the first 34 amino acids, C-terminal StrepII-tag (domain or fragment)”, the stoichiometry N was under 10 monomers in test [5] and over 10 monomers in test [6].
For the molecule “MS2-Lp23, MS2-L truncated of the first 22 amino acids, C-terminal StrepII-tag (domain or fragment)”, the stoichiometry N in [7] was under 4 monomers; in [8] it was over 10 monomers.
For “MS2-Lp32, MS2-L truncated of the first 31 amino acids, C-terminal StrepII-tag (domain or fragment)”, the results for the stoichiometry N in [9] and in test [10] were under 4 monomers and over 10 monomers, respectively.

B1: MS2-L, full-length phage lysis protein with C-terminal StrepII-tag (natural protein, MS2 phage, UniProt P03609 1-75, looked up)
chain: MKTRFPQQSQQTPASTNRRRPFKHEDYPCRRQQRSSTLYVLIFLAIFLSKFTNQLLLSLLEAVIRTVTTLQQLLT
notes: Lysis protein L of bacteriophage MS2, 75 amino acids; codon exchange GAA (Glu) to AAA (Lys) at the first position after the start methionine; In nanodisc samples the peptide sits in MSP1E3D1/DMPG nanodiscs; also called full-length MS2-L; full-length toxin MS2-L; source: also unpurified in the reaction mix; not shown: StrepII, C-terminal, kept
For the molecule B1, the binding result in test [11] is recorded as “binds”. The stoichiometry N is over 10 monomers in test [12] and under 12 monomers in test [13].
